Consider one molecule from article PMC7423924, “A fluorogenic cyclic peptide for imaging and quantification of drug-induced apoptosis” (Nature Communications, 2020).

Several values for one entry are separate records, joined by “and”; a condition that tells them apart may be missing. Equal values may be shown once.

Experiment [1] has as its system BL-2 cells (lymphoid). The experiment can be described thus: Flow cytometry staining before and after induction of apoptosis, BL-2. The class given is cell-based, human. The settings on record: single replicates, listed as Ann V. On the procedure:
(§1) Fig. 2 Apo-15 binds to apoptotic cells of different origin in multiple environments. a Representative fluorescence confocal microscopy images (from three independent experiments) human apoptotic (yellow arrows) and viable (white arrows) cells from different lineages: BL-2 (lymphoid), neutrophils (myeloid), and primary airway epithelial cells (epithelial). Cells were incubated with Apo-15 (100 nM, green), AF647-Annexin V (5 nM, red), and Hoechst 33342 (7 μM, blue) for 10 min and imaged under a fluorescence confocal microscope (λexc.: 405, 488, 633 nm: λem.: 450, 525, 670 nm). Scale bars: 10 µm. b Divalent cation-independent binding of Apo-15 to apoptotic cells of different origin (top plots: lymphoid cells, bottom plots: myeloid cells). Mixtures of apoptotic (highlighted in green dots) and viable cells (highlighted in black dots) were stained with AF647-Annexin V (25 nM) and Apo-15 (100 nM) in the presence of 2 mM CaCl2 (left) or 2.5 mM EDTA (right). Representative histograms showing Apo-15 binding (x-axis) vs AF647-Annexin V binding (y-axis) acquired on 5L LSR flow cytometer (n = 5). c Cells were sorted on their Apo-15 positivity (green populations in panel b) or negativity (black populations in panel b). Gating strategy in Supplementary Fig. 7. Morphological analysis (four independent images from two independent experiments) of cytocentrifuge preparations of Apo-15-positive and Apo-15-negative cells under brightfield microscopy (scale bar: 10 µm). d Quantification of fluorescence staining of neutrophils (myeloid, n ≥ 5), BL-2 cells (lymphoid, n ≥ 3) and primary airway epithelial cells (epithelial, n = 5) before and after induction of apoptosis and upon treatment with Apo-15 and AF647-Annexin V. Data acquired on 5 L LSR flow cytometer and presented as mean values ± SEM. P values obtained from two-tailed t tests. Source data (in d) are provided as a Source data file. […]
(§2) All apopeptides were reconstituted at 5 mM in DMSO. […] Fluorescence emission was measured on a 5 L LSR flow cytometer (BD). […]
A general note: A flow cytometer gives signals particle by particle.

Experiment [2] deals with primary airway epithelial cells. The experiment can be described thus: Flow cytometry staining before and after induction of apoptosis, epithelial. The settings on record: single replicates, listed as Ann V. The class given is cell-based, human. How it is done: as §1, §2

B1: Annexin V: fluorescently-labeled (AF647) annexin V, PS-binding protein (protein, UniProt P08758 2-320, looked up)
Annexin A5: AQVLRGTVTDFPGFDERADAETLRKAMKGLGTDEESILTLLTSRSNAQRQEISAAFKTLFGRDLLDDLKSELTGKFEKLIVALMKPSRLYDAYELKHALKGAGTNEKVLTEIIASRTPEELRAIKQVYEEEYGSSLEDDVVGDTSGYYQRMLVVLLQANRDPDAGIDEAQVEQDAQALFQAGELKWGTDEEKFITIFGTRSVSHLRKVFDKYMTISGFQIEETIDRETSGNLEQLLLAVVKSIRSIPAYLAETLYYAMKGAGTDDHTLIRVMVSRSEIDLFNIRKEFRKNFATSLYSMIKGDTSGDYKKALLLLCGEDD
modifications: AF647 label
Turning to B1, the “Stained cells (flow cytometry)” value in experiment [1] (BL-2 0h UV) is 25.4% and 28.9% and 10.3%; in experiment [1] (BL-2 3h UV, EDTA) it was 1.4% and 1.1% and 2.6%; in experiment [1] (BL-2 3h UV), 86.9% and 45.3% and 46.5% and 34.9%; in experiment [2] (epithelial cells untreated (UNT)) it was 7.0% and 6.2% and 7.1% and 5.9% and 13.0%; in experiment [2] (epithelial cells, staurosporine (ST, 1 µM 6 h)) it was 14.1% and 17.9% and 25.5% and 29.1% and 22.0%; in experiment [2] (epithelial cells, staurosporine, EDTA) it was 0.024% and 0.1% and 0.37% and 3.0% and 2.0%.
